This note sets out measurements from PMC11471779.

This test concerns the target CapGH3b (Alloprevotella sp. MAG60). In words: SEC-MALS.

What is called stoichiometry N is a count of units in the complex or per binding partner. Turning to CapGH3b (enzyme), the stoichiometry N worked out at 2.
